Data on one molecule can be found in publication PMC3553973.

The target of the data set is T1, SacUVDE (UV damage endonuclease) (Sulfolobus acidocaldarius, UniProt Q4J9T1 1-289).
T1 sequence: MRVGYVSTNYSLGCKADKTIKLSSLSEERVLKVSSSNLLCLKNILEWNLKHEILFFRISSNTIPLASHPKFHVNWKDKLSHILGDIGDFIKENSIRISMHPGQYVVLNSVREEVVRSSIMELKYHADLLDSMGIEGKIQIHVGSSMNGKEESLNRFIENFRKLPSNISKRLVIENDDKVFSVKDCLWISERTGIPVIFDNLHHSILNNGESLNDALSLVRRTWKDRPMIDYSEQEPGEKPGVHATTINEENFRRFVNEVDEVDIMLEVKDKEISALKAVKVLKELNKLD
Description: X-ray crystallography.

B1: 15-mer duplex with 6-4 photoproduct (dsDNA)
DNA 1: GCGTCCTTGACGACG
DNA 2: CGTCGTCAAGGACGC
modifications: 6-4 photoproduct at T7-T8 of strand 1
For B1, the binding result is “binds”.
